Consider three molecules from patent US20210188980A1 (SHANGHAI EPIMAB BIOTHERAPEUTICS, published 2021).

The target of assay [1] is T1, human LAG-3 expressed on cells (human, UniProt P18627 23-525).
T1 sequence (looked up): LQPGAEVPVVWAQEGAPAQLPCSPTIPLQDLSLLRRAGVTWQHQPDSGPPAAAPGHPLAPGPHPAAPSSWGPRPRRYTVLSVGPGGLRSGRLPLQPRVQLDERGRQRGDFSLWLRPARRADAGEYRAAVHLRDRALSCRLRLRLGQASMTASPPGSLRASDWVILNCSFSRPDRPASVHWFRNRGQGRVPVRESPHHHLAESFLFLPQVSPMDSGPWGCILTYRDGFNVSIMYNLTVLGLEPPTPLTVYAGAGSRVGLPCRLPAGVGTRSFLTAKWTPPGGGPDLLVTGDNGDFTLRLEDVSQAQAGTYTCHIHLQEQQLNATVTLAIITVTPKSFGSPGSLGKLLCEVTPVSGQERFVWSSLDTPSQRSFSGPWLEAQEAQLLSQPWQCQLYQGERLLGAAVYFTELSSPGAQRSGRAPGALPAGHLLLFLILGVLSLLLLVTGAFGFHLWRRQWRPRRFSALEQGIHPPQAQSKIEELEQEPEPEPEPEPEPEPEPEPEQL
Briefly: cell-based or functional assay.

The target of assay [2] is T2, cynomolgus LAG-3 expressed on HEK 293F cells (cynomolgus).
T2 construct: whole, on cells
The assay can be described thus: FACS, HEK 293F cynoLAG-3 cells. Here is the method:
(§1) FAGS analysis was performed using methods similar to Example 1.4, above, except that stable HEK 293F cell lines expressing either human LAG-3 cynomolgus LAG-3 were used. LAG-3 expressing cells were charged at 2×10⁴ cell per well into 96-well assay round-bottomed assay plates (Cat. No. 3799; Corning) and stained with purified anti-LAG-3 antibodies. LAG-3 antibodies were detected with AlexaFluor® Donkey anti-Mouse Ig (H+L) Highly Cross-Adsorbed Secondary Antibody (Cat. No. A21202; Invitrogen), and cell fluorescence was monitored using a flow cytometer. The data were processed by GraphPad software, and EC50 values were calculated.

Assay [3] deals with LAG-3 antigen (Biacore analyte of Example 7.7). The assay can be described thus: SPR Biacore T200, mAb captured, LAG-3 antigen analyte. Here is the method: For antibodies with high binding affinity in ELISA and FACS assays, as well as potent functional activity, binding affinities were determined based on measurement of binding kinetic constants in real time binding reactions using Biacore surface plasmon resonance. Briefly, the binding assay of antibody to antigen was performed using a Biacore T200 system through an antibody capture approach. Anti-mouse IgG Fc antibody was immobilized on a CM5 sensor chip according to the manufacturer's instructions. The test anti-LAG-3 murine monoclonal antibody was injected and captured by the immobilized anti-mouse IgG Fc. Then serial concentrations of LAG-3 antigen were individually injected, and the binding profile was recorded for each concentration of antigen analyte. The assay temperature was 25° C., and the association and dissociation times were 180 and 1200 seconds, respectively. The Biacore data were fitted using Biacore T200 evaluation software 1.0 according to a 1:1 binding model to calculate the association (kₒₙ) and dissociation (koff) rate constants and from these calculations the equilibrium dissociation constant (KD) was determined.

Assay [4] concerns the target T1, human LAG-3 expressed on cells. Briefly: FACS, HEK 293F huLAG-3 cells. On the procedure:
as §1

Assay [5] has as its target T3, human LAG-3 ECD/Fc fusion protein (human).
T3 construct: also called HuLAG-3 ECD/Fc
Briefly: FACS RBA, huLAG-3 ECD/Fc on Raji; competitor MHC Class II. Here is the method: Supernatants displaying LAG-3 specific activity were tested for the ability to block LAG-3 receptor binding to MHC Class II. Raji human B cell lymphoblasts express high levels of MCH Class II and were used as binding targets for LAG-3 ECD/Fc proteins described above. Briefly, Raji cells were harvested and resuspend in FACS buffer and plated in 96-well plates (2×10⁵ cells/well). Anti-LAG-3 hybridoma supernatants were mixed with soluble LAG-3 ECD/Fc and the mixture was added to wells at a final volume of 100 μl/well. After adding the mixture to cells, the plates were incubated at room temperature for 30 minutes. After washing twice with PBS, the cells were incubated with anti-human IgG Alexa Fluor® 488 secondary antibody at 4° C. for 1 hour, washed twice with PBS, then fluorescence was measured on a flow cytometer.
Purified anti-LAG-3 antibodies also were tested in a RBA in the same manner as described in Example 7.3. Antibodies were also tested in an antigen-specific T cell activation assay, as follows: A huLAG-3 expressing murine T hybridoma cell line was generated to order by ChemPartner (Shanghai, CN). Mouse splenocytes from the same strain of mice were used as effector cells. The hybridoma expressing the huLAG-3 receptor protein is capable of binding to MHC Class II-positive mouse splenocytes, with inhibitory effect via engagement of Class II. The assay tests for anti-LAG-3 antibody-mediated reversal of the inhibitory effect, as measured by increased production of IL-2. Mouse spleenocytes were harvested from 6-8 week-old female C57BL/6 mice, red blood cells were lysed using Red Blood Cell Lysis Buffer (Sigma-Aldrich; R7757) according to the maker's instructions. Next, 50 μl T hybridoma-huLAG-3 cells (2×10⁶ cells/ml) were seeded in each well of a 96-well culture plate, and then a series of anti-LAG-3 monoclonal antibodies in solution at 50 μl/well were added and incubated at 37° C. for 30 min. Mouse splenocytes (4×10⁶ cells/ml) and the antigen (20 μg/ml) were mixed and incubated at 37° C. for 30 min. The mixture (100 μl/well) was added into each well that was already seeded with T hybridoma-huLAG-3 cells and anti-LAG-3 mAbs. The mixture of antibodies, T hybridoma-huLAG-3 cells, mouse splenocytes, and the antigen was cultured for 3 days.

Assay [6] has as its target T3, human LAG-3 ECD/Fc fusion protein. The assay can be described thus: ELISA, coated huLAG-3 ECD/Fc. Here is the method: The supernatants of hybridoma clones were primarily screened by ELISA. Briefly, 50 μl/well of […] human LAG-3 ECD/Fc in NaHCO₃ were directly coated in each well of 96-well plate overnight. Plates were washed 3 times with 1×PBST, 300 μl per well. After blocking with 1% BSA in PBST at 250 μl per well and incubating at room temperature for 1 hour, the hybridoma supernatants were added at 50 μl per well and incubated at 37° C. for 1 hour. After washing, an HRP-linked goat anti-mouse IgG Fc secondary antibody (Cat. No. A0168, Sigma) was added at 100 μl/well and the plates were incubated at room temperature for 1 hour. TMB reagent (InnoReagents) was used to detect and develop the ELISA signal at 100 μl/well for 15 minutes, the reaction was stopped with 1 Normal HCL. The plates were read with a plate reader (SpectraMax® M5e, Molecular Devices, USA) at a wavelength of 450 nm. The ELISA-positive antibody producer clones were further verified by FACS analysis using methods similar to Example 1.4, above, except that stable HEK 293F cell lines expressing either human LAG-3 or cynomolgus LAG-3 were used. Hybridomas producing LAG-3 binding activity were selected and further characterized in a receptor blocking assay (RBA).
A binding ELISA was performed in the same way as described in Example 7.2 above. Each purified antibody was 10-fold serially diluted. After blocking of a 96-well assay plate with wells containing immobilized LAG-3 ECD/Fc fusion protein targets, the purified antibody samples with diluted concentrations were added to wells of the assay plate. The HRP-linked anti-mouse IgG antibody (A0168, Sigma) and TMB reagent were used to detect and develop the ELISA signal, which were read on a SpectraMax M5e plate reader at wavelength of 450 nm. Curves were fitted using GraphPad software, and EC50 values were calculated. Similarly, a RBA was also performed as described in Example 7.3 with titrated, purified antibodies, and maximum inhibition percentages and IC50 values were determined.

B1: mAb747 (antibody, V domains shown)
VH: EVQLQQSGAELVRPGASVKLSCTASDFNIKDDYMHWVKQRPEQGLDWIGWIVPENGNTEYASKFQGKATITADTSSNTAYLQLSSLTSEDTAVYYCTVYGDYWGQGTTLTVSS
VL: DIQMTQSPSSLSASLGERVSLNCRASQEISGYLSWLQQKPDGTIKRLIYAASTLDSGVPKRFSGSRSGSDYSLTISSLESEDFAAYYCLQYASYPLTFGAGTKLELK
notes: murine hybridoma anti-LAG-3 mAb; also called 3502-mAb747
Regarding B1, in assay [1], the “Antigen-dependent Activation, Mouse IL-2, EC50” value was 1.27 nM and the “Max IL-2” value is 729 pg/mL. In assay [2], this molecule displayed an EC50 of 3.1 nM and a Max-MFI of 65.2 MFI. In assay [3], this molecule gave a Kd of 52 nM. Moreover, in assay [4], the EC50 was determined as 1.1 nM and the Max-MFI amounted to 104 MFI. In addition, in assay [5], the IC50 turned out to be 2.84 nM and the “Max. Inhib. (%)” value was 96.3%. The molecule also came in with an EC50 in assay [6] of 0.25 nM.

B2: mAb749 (antibody, V domains shown)
VH: EVQLQQSGAELVRPGASVKVSCTASDFNIKDDYVHWVKQRPEQGLEWIGWIDPENGDTEYASKFQGKATITADTSSNTAYLQLSSLTSEDTAVYFCSTWDAEENYWGQGTTLSVSS
VL: DIVLTQAAPSVPVTPGESVSISCRSSKSLLHSNGNTYLYWFLQRPGQSPQVLIYRMSNLASGVPVRFSGSGSGTAFTLRISRVEAEDVGVYYCMQHLEYPFTFGSGTKLEIK
notes: murine hybridoma anti-LAG-3 mAb
Regarding B2, the “Max IL-2” value in assay [1] turned out to be 513 pg/mL. In addition, in assay [2], the EC50 amounted to 14.3 nM and the Max-MFI amounted to 67.4 MFI. Moreover, the Kd in assay [3] came out at 189 nM. In assay [4], the concentration giving a half-maximal response (EC50) amounted to 3.3 nM and the Max-MFI was found to be 124 MFI. Also, in assay [5], the IC50 is 4.73 nM and the “Max. Inhib. (%)” value was 93.9%. The molecule further yielded an EC50 in assay [6] of 0.55 nM.

B3: mAb750 (antibody, V domains shown)
VH: EVQLQQSGAELVRPGASVKLSCTPSGLNIKDDYIHWVKQRPEQGLEWIGWIDPENGDTEYASKFQGKATITADTSSNTAYLQLSSLTSEDSAVYYCCTADYRNWYWGQGTTLTVSS
VL: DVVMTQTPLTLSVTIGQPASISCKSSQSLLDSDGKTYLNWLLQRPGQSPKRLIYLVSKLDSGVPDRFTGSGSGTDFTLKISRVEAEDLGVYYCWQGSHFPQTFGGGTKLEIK
notes: as for B2
Turning to B3, in assay [1], the “Max IL-2” value is 552 pg/mL. In addition, the EC50 stood at 114 nM in assay [2], 24.1 nM in assay [4] and 0.25 nM in assay [6]. In addition, the Max-MFI in assay [2] is 36.7 MFI; in assay [4], 88.7 MFI. The molecule further returned a Kd in assay [3] of 75.1 nM. Moreover, the IC50 in assay [5] was 7.15 nM. Moreover, in assay [5], the “Max. Inhib. (%)” value amounted to 96.6%.
